# Results: the supplement of paper PMC10126150
# ± gives the standard deviation of the averaged measurements.
# System: ATP
# Experiment: switch fluorescence ratio, 500 uM ATP over buffer (Cy3 cluster intensity, sum of 5 cycles each) (fold (ratio)); higher = stronger signal-on switching upon ATP binding; sequences stand for … in TCGTCGGCAGCGTCAGATGTGTATAAGAGACAGTTTTTTTTTTTTTTTTTTTTTTTTT…TC
# Conditions: aptamer strand: ATP DNA aptamer (quencher-CACCTGGGGGAGTATTGCGGAGGAAGG + anchor), 100 nM annealed; ATP concentration: 500 uM
# Procedure, shortened: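 The fluorescence ratio divides summed target-cycle Cy3 intensity by summed buffer-cycle Cy3 intensity for each cluster and is averaged per switch-domain sequence. Cy3-labelled switching-strand clusters on a modified Illumina MiSeq flow-cell were annealed to 100 nM quencher-labelled ATP aptamer, then imaged in selection buffer and again after 15 min with 500 uM ATP at 22 °C. Five such cycles were run, with NaOH stripping and re-annealing between them, and clusters outside 100-1000 RFU were excluded.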
# 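Also: ATP exposure 15 min at 22 °C before imaging.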
row,Sequence,switch fluorescence ratio
1,GGCCCGTCGG,1.03 ± 0.0047
2,GGCCCTAGTA,1 ± 0.059
3,GGCCCTCTGA,1.05 ± 0.018
4,GGCCCTGAGC,0.9991 ± 0.0025
5,GGCCGACTTG,1 ± 0.043
6,GGCCGCAGGT,0.987 ± 0.023
7,GGCCGCCGTC,1 ± 0.019
8,GGCCGGCAAA,1.01 ± 0.037
9,GGCCGGGGGG,1.02 ± 0.058
10,GGCCGGGGGT,1.25 ± 0.4
11,GGCCGGGGTG,1.18 ± 0.032
12,GGCCTAAATA,0.998 ± 0.014
13,GGCCTAATAG,1 ± 0.034
14,GGCCTATGTC,1.04 ± 0.011
15,GGCCTCAAAT,1.01 ± 0.037
16,GGCCTCCTGT,1.02 ± 0.033
17,GGCCTCGCCT,0.98511 ± 9.3e-05
18,GGCCTCGTAC,1.1 ± 0.02
19,GGCCTCTGCT,1.02 ± 0.02
20,GGCCTGGGAC,1.01 ± 0.027
21,GGCCTGGGAG,0.992 ± 0.011
22,GGCCTTCGGG,0.972 ± 0.053
23,GGCGAAAGGA,1 ± 0.041
24,GGCGAAAGGG,1.02 ± 0.026
25,GGCGAAGTCG,0.999 ± 0.023

row,Sequence,switch fluorescence ratio
1,GGCGAGGGCT,0.982 ± 0.051
2,GGCGAGTTAC,1.021 ± 0.0012
3,GGCGATACTA,1.92 ± 0.11
4,GGCGATCGCG,1.02 ± 0.04
5,GGCGCAGGAG,1.092 ± 0.0082
6,GGCGCCGCGG,0.9937 ± 0.0092
7,GGCGCCGCTG,1.016 ± 0.003
8,GGCGCCGGAA,0.98 ± 0.031
9,GGCGCGTGTC,0.9945 ± 0.009
10,GGCGCTAGCG,0.993 ± 0.068
11,GGCGCTGAGT,1.017 ± 0.01
12,GGCGGACAGG,1.038 ± 0.0062
13,GGCGGAGAGG,1.08 ± 0.022
14,GGCGGAGGGG,0.998 ± 0.024
15,GGCGGAGTAT,1 ± 0.017
16,GGCGGCAGGG,1 ± 0.013
17,GGCGGGATTG,0.959 ± 0.041
18,GGCGGGCGCT,0.993 ± 0.032
19,GGCGGGGGTC,1.01 ± 0.029
20,GGCGGTATAG,1.02 ± 0.013
21,GGCGGTGTGG,0.981 ± 0.023
22,GGCGTAGCTT,1.01 ± 0.051
23,GGCGTAGTTA,0.985 ± 0.018
24,GGCGTCAAGG,0.996 ± 0.026
25,GGCGTCTTTG,1.019 ± 0.0091

row,Sequence,switch fluorescence ratio
1,GGCGTTGGGT,0.9929 ± 0.0096
2,GGCGTTTTAG,0.998 ± 0.034
3,GGCTAACGAC,1.063 ± 0.0021
4,GGCTAAGGTC,1 ± 0.044
5,GGCTAAGGTT,0.997 ± 0.015
6,GGCTAATGGG,1.021 ± 0.0043
7,GGCTAATTTT,1.02 ± 0.011
8,GGCTACGTTT,1.05 ± 0.084
9,GGCTAGGTGC,1.24 ± 0.058
10,GGCTATAATA,1.01 ± 0.034
11,GGCTATGGGT,1.02 ± 0.024
12,GGCTATTGAT,1.004 ± 0.0073
13,GGCTATTGCG,0.995 ± 0.016
14,GGCTCAGGGC,0.9793 ± 0.0024
15,GGCTCATCA,1.01 ± 0.023
16,GGCTCCAACG,1.06 ± 0.013
17,GGCTCCGGCG,1.04 ± 0.032
18,GGCTCCGGTT,1.19 ± 0.084
19,GGCTCTGATG,1.01 ± 0.011
20,GGCTGAAAAA,0.915 ± 0.056
21,GGCTGAACGT,1 ± 0.012
22,GGCTGAAGGG,0.996 ± 0.014
23,GGCTGAGCCT,0.991 ± 0.038
24,GGCTGAGGGG,0.972 ± 0.042
25,GGCTGCATGC,1.08 ± 0.023

row,Sequence,switch fluorescence ratio
1,GGCTGGCTGA,0.987 ± 0.045
2,GGCTGGGATT,0.964 ± 0.02
3,GGCTGGGGT,1.02 ± 0.034
4,GGCTGTGGCG,0.9761 ± 0.0015
5,GGCTGTGTTA,0.9958 ± 0.0024
6,GGCTGTTTTT,0.962 ± 0.034
7,GGCTTAAGCA,0.988 ± 0.025
8,GGCTTAGGGC,1.02 ± 0.027
9,GGCTTAGTTG,0.982 ± 0.0024
10,GGCTTATTGG,0.969 ± 0.016
11,GGCTTCTTGT,1.01 ± 0.009
12,GGCTTTTGGA,0.982 ± 0.014
13,GGCTTTTTTC,0.993 ± 0.021
14,GGGAAAAAAC,1.013 ± 0.0064
15,GGGAAAAAGT,0.985 ± 0.027
16,GGGAAAAGGC,1.02 ± 0.035
17,GGGAAAATA,0.969 ± 0.018
18,GGGAAAATAG,0.99 ± 0.012
19,GGGAAAGATT,1.005 ± 0.01
20,GGGAAAGCGT,1.03 ± 0.035
21,GGGAAAGGAC,1.03 ± 0.032
22,GGGAAATAGG,1.01 ± 0.023
23,GGGAAATCGT,1.02 ± 0.012
24,GGGAACCGGA,1.03 ± 0.17
25,GGGAAGACTT,1.02 ± 0.087

row,Sequence,switch fluorescence ratio
1,GGGAAGAGGC,1.01 ± 0.038
2,GGGAAGGTAT,0.992 ± 0.017
3,GGGAAGGTTA,0.993 ± 0.017
4,GGGAATAGAG,0.99 ± 0.035
5,GGGAATGATC,1.01 ± 0.034
6,GGGAATGTAG,1.01 ± 0.018
7,GGGAATTCTG,0.985 ± 0.023
8,GGGAATTGGT,0.979 ± 0.02
9,GGGACAGCAT,0.996 ± 0.029
10,GGGACAGCGT,1.03 ± 0.025
11,GGGACAGGTA,1.02 ± 0.022
12,GGGACATGGG,0.972 ± 0.041
13,GGGACCGAAT,1.004 ± 0.0056
14,GGGACCGGTT,0.99 ± 0.03
15,GGGACCTAAG,1 ± 0.024
16,GGGACGGCTC,0.993 ± 0.049
17,GGGACGGGC,0.933 ± 0.078
18,GGGACGTTAG,1.09 ± 0.034
19,GGGACTAGAG,0.9744 ± 0.0061
20,GGGACTAGTT,0.959 ± 0.046
21,GGGAGAAATT,1.02 ± 0.061
22,GGGAGAAGCG,0.982 ± 0.014
23,GGGAGAATTT,1.29 ± 0.43
24,GGGAGAGGCG,0.984 ± 0.013
25,GGGAGAGTTG,0.993 ± 0.023

row,Sequence,switch fluorescence ratio
1,GGGAGATTGT,0.999 ± 0.026
2,GGGAGCATTG,1.02 ± 0.037
3,GGGAGCGCGG,0.994 ± 0.013
4,GGGAGCTCTG,1 ± 0.014
5,GGGAGGAAAA,1.02 ± 0.016
6,GGGAGGAAAG,0.991 ± 0.017
7,GGGAGGAGTG,0.98 ± 0.029
8,GGGAGGATGT,0.997 ± 0.022
9,GGGAGGGACT,1.03 ± 0.051
10,GGGAGGGGCC,1.01 ± 0.026
11,GGGAGGGGCG,1 ± 0.023
12,GGGAGGGGCT,1.02 ± 0.068
13,GGGAGGGGGG,0.994 ± 0.032
14,GGGAGGGTCT,0.975 ± 0.016
15,GGGAGGTAAT,1 ± 0.056
16,GGGAGGTATA,0.969 ± 0.012
17,GGGAGGTCAT,0.9731 ± 0.0065
18,GGGAGGTGTT,1.037 ± 0.009
19,GGGAGTAGAC,1.02 ± 0.045
20,GGGAGTAGTT,1.01 ± 0.025
21,GGGAGTATTT,1 ± 0.034
22,GGGAGTCCCA,0.9973 ± 0.0078
23,GGGAGTGGCC,1.01 ± 0.032
24,GGGAGTTCGG,0.9597 ± 0.0092
25,GGGAGTTGGA,1.02 ± 0.024

row,Sequence,switch fluorescence ratio
1,GGGATAGAAG,0.971 ± 0.019
2,GGGATATTAG,0.994 ± 0.034
3,GGGATATTTT,0.977 ± 0.018
4,GGGATCATGT,0.98 ± 0.014
5,GGGATCCAGG,1.23 ± 0.087
6,GGGATGAGTT,0.98 ± 0.041
7,GGGATGCTCT,1.01 ± 0.017
8,GGGATGGGAA,1.02 ± 0.022
9,GGGATGGGGT,0.988 ± 0.029
10,GGGATGGGTC,0.985 ± 0.02
11,GGGATGTGCT,0.957 ± 0.012
12,GGGATGTGTT,0.9635 ± 0.0069
13,GGGATTAGTC,1.05 ± 0.088
14,GGGATTCGTC,0.994 ± 0.02
15,GGGATTGGCA,0.9798 ± 0.0092
16,GGGATTGTTT,0.965 ± 0.021
17,GGGATTTGGG,0.9745 ± 0.0088
18,GGGATTTGTG,0.972 ± 0.01
19,GGGCAACGAC,1.07 ± 0.0093
20,GGGCAACTTT,0.997 ± 0.049
21,GGGCAAGAAT,0.997 ± 0.017
22,GGGCAAGGGG,1.02 ± 0.028
23,GGGCAAGTGG,0.959 ± 0.014
24,GGGCAATTAG,1.15 ± 0.014
25,GGGCAATTGC,1.01 ± 0.059

row,Sequence,switch fluorescence ratio
1,GGGCACGTTT,0.995 ± 0.011
2,GGGCAGATAT,1.02 ± 0.017
3,GGGCAGGGGG,1.01 ± 0.04
4,GGGCATAAAG,1.02 ± 0.025
5,GGGCATAGGT,0.982 ± 0.018
6,GGGCATGGCT,0.99 ± 0.016
7,GGGCCATAAG,0.988 ± 0.052
8,GGGCCATATT,0.963 ± 0.044
9,GGGCCATGGT,0.9815 ± 0.0072
10,GGGCCCATTG,0.963 ± 0.04
11,GGGCCCGCTG,0.987 ± 0.049
12,GGGCCCGGGA,0.986 ± 0.018
13,GGGCCCGTAT,1.014 ± 0.0091
14,GGGCCCTGGT,1.01 ± 0.013
15,GGGCCGGCTG,1.01 ± 0.036
16,GGGCCTCGGG,0.953 ± 0.04
17,GGGCCTGATG,1.01 ± 0.012
18,GGGCGAAGGG,0.987 ± 0.032
19,GGGCGGACGT,0.969 ± 0.041
20,GGGCGGGAAC,1.014 ± 0.0088
21,GGGCGGGGTG,1.03 ± 0.025
22,GGGCGTCGTC,0.993 ± 0.052
23,GGGCTAGAGG,0.974 ± 0.022
24,GGGCTAGATG,1 ± 0.018
25,GGGCTAGTTA,0.9948 ± 0.0073
